{"source": "patent US20110117206A1", "about": "“PHOSPHOPEPTIDES AND USE OF THE SAME” (PLANT BIOSCIENCE LIMITED, priority 2008, published 2011)", "key": {"[1]": {"experiment": "Stability and reconstitution of nanocluster solutions (urea/urease method)", "format": "physicochemical", "settings": "in the original volume of water; clear solution, nanocluster size unchanged", "experimental": "Nanoclusters were prepared by the urea/urease method, as discussed above and as known in the art (Holt, C., Wahlgren, N. M. & Drakenberg, T. (1996). Ability of a beta-casein phosphopeptide to modulate the precipitation of calcium phosphate by forming amorphous dicalcium phosphate nanoclusters. Biochemical Journal 314, 1035-1039) but wherein the phosphopeptide was provided by either the OPNmix, discussed above, or fractions from the gel filtration separation. Typically, an OPNmix sample (25 mg) was dissolved in 1 ml of water and dialysed overnight against 500 ml of 1 mM EDTA followed by exhaustive dialysis against deionised water to remove Ca ions. The Ca-free peptides were recovered by freeze drying.\nAn initial under-saturated solution of salts at pH 5 with the composition 22 mM Ca(NO3)2, 20 mM KH2PO4, 36 mM KNO3 and 1.5 mM NaN3 (Mg-free Buffer A) was used to dissolve the peptide. Sufficient urea (0-30 mM) was added from a stock solution of 200 mM to give the desired final pH after hydrolysis with 2 units of urease from Canavalia ensiformis (Calbiochem product no. 666133). These conditions allowed the pH to rise to within 0.004 units of the target value within a few minutes. […]"}, "[2]": {"experiment": "SAXS of free OPN and OPN 1-149 (Guinier, worm-like chain model)", "format": "physicochemical", "settings": "free peptide, 5-15 mg ml^−1, average of three determinations", "experimental": "In a SAXS experiment, wherein measurements were made on station 2.1 at the CCLRC Daresbury Laboratory, the normalised scattered intensity I(q) was measured. For a dispersion of isotropic, monodisperse particles, I(q) is related to the inter-particle structure factor, S(q) and the particle scattering factor P(q) by\nwhere N is the number of particles of mean excess scattering length density over the solvent Δ ρp, volume Vp and mass M. The scattering wave vector is q=4π sin θ/λo, where θ is half the scattering angle and λo is the wavelength of the X-rays. In a dilute solution where S(q)=1 and a fraction α′ of the peptide chains have formed a polydisperse distribution of nanoclusters, equation (22) becomes\nThe molar volumes of the unphosphorylated residues were taken from Jacrot and Zaccai (Jacrot, B. & Zaccai, G. (1981). Determination of Molecular-Weight by Neutron-Scattering. Biopolymers 20, 2413-2426). The molar volume of ortho-L-phosphoserine was calculated from the unit cell volume of the amino acid, as determined by Sundaralingam (Sundaralingam, M. & Putkey, E. F. (1970). Molecular structures of amino acids and peptides. II. A redetermination of the crystal structure of L-O-serine phosphate. A very short phosphate-carboxyl hydrogen bond. Acta Crystallographica B26, 790-800) and 11 Å^3 subtracted to give the residue volume of 168.7 Å^3. The difference in residue volumes of serine and phosphoserine was then used to calculate a residue volume for phosphothreonine of 191.7 Å^3. The X-ray forward scattering amplitudes of the residues were calculated from the elemental compositions using atomic scattering factors. For OPN 16P 1-149 and OPN 28P 1-262, the scattering length densities in units of […] were calculated to be 12.56 and 12.48, respectively. For the nanoclusters prepared with OPN 16P 1-149 it was assumed that the phosphate moieties of the 10 phosphorylated residues found in the three PCs, were assigned to the core, giving ρshell=12.40×10^10 cm^−2. For the core, a hydrated CaP with the composition given by equation (2) gave ρcore=19.1×10^10 cm^−2. Radii of gyration of the whole protein and N-terminal polypeptide were independent of concentration in the range 5-15 mg ml^−1. For OPN the average of three determinations by the Guinier method was 5.50±0.17 nm and the corresponding value for OPN 1-149 was 2.17±0.24 nm. For OPN with 262 residues, equation (28) predicts a radius of gyration of 5.38 nm and for the N-terminal plasmin peptide of 149 residues, the predicted value is 3.84 nm.\nRandom-coil behavior and the dimensions of chemically unfolded proteins. Proceedings of the National Academy of Sciences of the United States of America 101, 12491-12496). […]"}}, "data": [{"substance": "OPN 1-149: N-terminal osteopontin phosphopeptide fragment from bovine milk, probably formed by plasmin; gel filtration fraction F3a", "values": [{"measurement": "dissolution of freeze-dried nanocluster powder", "setting": "[1]", "value": "dissolve virtually instantly"}, {"measurement": "radius of gyration by the Guinier method", "setting": "[2]", "value": "2.17±0.24", "unit": "nm"}]}]}
